Experimental data from patent US12551583B2, “Radiolabeled ligands for targeted PET/SPECT imaging and methods of their use” (MEMORIAL SLOAN KETTERING CANCER CENTER, priority 2016, dated 2026).

What was measured:
[1] = in vivo; details: female, BALB/c, mouse, iv, total radioactivity; for tissue uptake at 24 h: 4T1 tumoral uptake; for tissue uptake at 4 h: biodistribution, Tumor (4T1 tumoral uptake)
Method: (§1) 4T1 orthotopic BALB/c mouse model. The cells were removed from the flasks, concentrated, and resuspended in minimal media for cell counting. The cells were then diluted to contain approximately 1 million cells in 30 μL of media (for orthotopic allografts). Following an MSKCC Institutional Animal Care and Use Committee approved protocol, 8-10 week old BALB/c mice (Charles River Laboratories, Wilmington, MA) were surgically implanted with one million 4T1 cancer cells into the first or the last mammary fat pad of the right side of the animal using aseptic surgical techniques and sterile staple closures while the mice were under anesthetic. Additionally, mice were given injections of meloxicam (24 h pain killer) in the scruff and bupivacaine intradermally prior to surgical incisions. One day post surgery, the mice were again given meloxicam and checked to ensure that the closure was healing. Two and three days post surgery, the mice were checked to ensure that the animals were healthy and recovering well from the surgery. Five to seven days post surgery, the staples were removed. Five to nine days post surgery, the mice were injected with 50-75 μCi (0.9-0.4 nmol) of the respective radiopharmaceutical for in vivo biodistribution or 500-600 μCi (9-11 nmol) for in vivo imaging. The mice receiving ^64Cu-NOTA-pHLIP were sacrificed at 1, 2, 4, 12, 24, 36, and 48 h; the mice receiving [^18F]—AlF-NOTA-pHLIP were sacrificed at 0.5, 1, 2, 4, 6 and 8 h. The 4T1 tumors in this study were purposely used 5-9 days after inoculation to ensure lower tumoral pH. Animal models. Animal studies were conducted according to MSKCC IACUC-approved animal protocol. 4T1 (orthotopic breast cancer allografts of 1×10^6 cells surgically implanted in the mammary fat pad) and B16-F10 (orthotopic melanoma allografts of 1×10^5 cells injected intradermally on the shoulder) tumors were orthotopically inoculated in media in female BALB/c and C57Bl/6 mice (Charles River Laboratories (CRL)), respectively. Additionally, PC3 (3×10^6 cells) or LNCaP (3-6×10^6 cells) tumors were subcutaneously xenografted on the shoulder of athymic nude male mice (CRL). Mice were used once tumor volumes were approximately 90-300 mm^3. In vivo animal PET imaging and biodistribution. Mice were injected with radiolabeled NOTA-pHLIP derivatives i.v. (500-700 μCi/mouse for PET or SPECT imaging studies and 25-100 μCi/mouse for biodistribution studies). All injections were less than 200 μL with <10% EtOH in sterile PBS. PET images were obtained with the mice under anesthesia in an Inveon PET-CT or microPET Focus 120 (Siemens) at 0.5-48 h p.i. All images were analyzed using ASIPro VM (Concorde Microsystems). SPECT images were obtained with the mice under anesthesia in a NanoSPECT/CT Plus at 4-24 h p.i. All SPECT images were reconstructed using HiSPECT and analyzed using InVivoScope. Dissections for ex vivo biodistribution were performed on mice after CO2 asphyxiation or cervical dislocation while anesthetized at reported time points. Weight of the syringe prior to injection and after injection was used to determine the mass of injectate. Activity of the syringe prior to injection and after injection was used to determine the percent of injectate administered. The mass injected was corrected by the percent of radioactivity injected. Four to five aliquots (10 μL) were weighed and counted as internal standards for each study. All of the collected organs were counted using an automatic gamma counter (Wizard 3″, PerkinElmer, Waltham, MA). The total injected dose was found as the mass injected dose×fraction radioactivity injected×internal standard average counts/g. The percent injected dose (% ID) was determined as the counts for the tissue×100/total injected dose. The % ID/g was calculated as the % ID/tissue weight. The average and standard deviation of the % ID and % ID/g was determined using normal methods (n−1) for each set of mice.

[2] = system: 4T1 orthotopic tumor-bearing BALB/c mice; test: in vivo; details: female, BALB/c, mouse, iv; for biodistribution, Tumor (4T1 tumoral uptake): 4 h
Method: as §1

SMILES	tissue uptake at 24 h ([1]; 500 uCi) [%ID/g]	4T1 tumoral uptake ([2]; 50 uCi, 24 h) [% ID/g]	biodistribution, Tumor (4T1 tumoral uptake) [2] [% ID/g]	tissue uptake at 24 h ([1]; 50 uCi) [%ID/g]	tissue uptake at 4 h [1] [%ID/g]
CC(C)C[C@@H](NC(=O)[C@@H](CC(C)C)NC(=O)[C@@H](CC(=O)O)NC(=O)[C@@H](CC(C)C)NC(=O)[C@@H](CC(C)C)NC(=O)[C@@H](CC(C)C)NC(=O)[C@H](NC(=O)[C@@H](CC(=O)O)NC(=O)[C@H](NC(=O)[C@H]1CCCN1C(=O)[C@@H](Cc1ccccc1)NC(=O)[C@@H](CC(C)C)NC(=O)[C@@H](CC(C)C)NC(=O)[C@@H](CC(=O)O)NC(=O)[C@@H](CC(C)C)NC(=O)[C@@H](Cc1ccc(O)cc1)NC(=O)[C@@H](C)NC(=O)[C@@H](CCCNC(=N)N)NC(=O)[C@@H](Cc1c[nH]c2ccccc12)NC(=O)[C@H]1CCCN1C(=O)[C@@H](CC(N)=O)NC(=O)[C@@H](CCC(N)=O)NC(=O)[C@@H](CC(=O)O)NC(=O)[C@@H](CC(=O)O)NC(=O)[C@@H](CSC1CC(=O)N(CCNC(=O)CN2CCN(CC(=O)O)CCN(CC(=O)O)CC2)C1=O)NC(=O)[C@@H](C)N)[C@H](C)O)[C@H](C)O)C(=O)N[C@H](Cc1c[nH]c2ccccc12)C(=O)O (single isomer, unassigned) [^67Ga-NO2A-cysVar3, metal not drawn]	34 ± 3	26±4	12±3		
CC(C)C[C@@H](NC(=O)[C@@H](CC(C)C)NC(=O)[C@@H](CC(=O)O)NC(=O)[C@@H](CC(C)C)NC(=O)[C@@H](CC(C)C)NC(=O)[C@@H](CC(C)C)NC(=O)[C@H](NC(=O)[C@@H](CC(=O)O)NC(=O)[C@H](NC(=O)[C@H]1CCCN1C(=O)[C@@H](Cc1ccccc1)NC(=O)[C@@H](CC(C)C)NC(=O)[C@@H](CC(C)C)NC(=O)[C@@H](CC(=O)O)NC(=O)[C@@H](CC(C)C)NC(=O)[C@@H](Cc1ccc(O)cc1)NC(=O)[C@@H](C)NC(=O)[C@@H](CCCNC(=N)N)NC(=O)[C@@H](Cc1c[nH]c2ccccc12)NC(=O)[C@H]1CCCN1C(=O)[C@@H](CC(N)=O)NC(=O)[C@@H](CCC(N)=O)NC(=O)[C@@H](CC(=O)O)NC(=O)[C@@H](CC(=O)O)NC(=O)[C@@H](CS)NC(=O)[C@@H](C)NC(=S)Nc1ccc(CC2CN(CC(=O)O)CCN(CC(=O)O)CCN2CC(=O)O)cc1)[C@H](C)O)[C@H](C)O)C(=O)N[C@H](Cc1c[nH]c2ccccc12)C(=O)O (single isomer, unassigned) [^67Ga-NOTA-Var3, metal not drawn]				2.93 ± 0.11	2.05 ± 0.17
CC(C)C[C@@H](NC(=O)[C@@H](CC(C)C)NC(=O)[C@@H](CC(=O)O)NC(=O)[C@@H](CC(C)C)NC(=O)[C@@H](CC(C)C)NC(=O)[C@@H](CC(C)C)NC(=O)[C@H](NC(=O)[C@@H](CC(=O)O)NC(=O)[C@H](NC(=O)[C@H]1CCCN1C(=O)[C@@H](Cc1ccccc1)NC(=O)[C@@H](CC(C)C)NC(=O)[C@@H](CC(C)C)NC(=O)[C@@H](CC(=O)O)NC(=O)[C@@H](CC(C)C)NC(=O)[C@@H](Cc1ccc(O)cc1)NC(=O)[C@@H](C)NC(=O)[C@@H](CCCNC(=N)N)NC(=O)[C@@H](Cc1c[nH]c2ccccc12)NC(=O)[C@H]1CCCN1C(=O)[C@@H](CC(N)=O)NC(=O)[C@@H](CCC(N)=O)NC(=O)[C@@H](CC(=O)O)NC(=O)[C@@H](CC(=O)O)NC(=O)[C@@H](CSC1CC(=O)N(CCNC(=O)CN2CCN(CC(=O)O)CCN(CC(=O)O)CC2)C1=O)NC(=O)[C@@H](C)N)[C@H](C)O)[C@H](C)O)C(=O)N[C@H](Cc1c[nH]c2ccccc12)C(=O)O (single isomer, unassigned) [^68Ga-NO2A-cysVar3, metal not drawn]			6±2		
CC(C)C[C@@H](NC(=O)[C@@H](Cc1ccc(O)cc1)NC(=O)[C@@H](C)NC(=O)[C@@H](CCCNC(=N)N)NC(=O)[C@@H](Cc1c[nH]c2ccccc12)NC(=O)[C@H]1CCCN1C(=O)[C@@H](CC(N)=O)NC(=O)[C@@H](CCC(N)=O)NC(=O)[C@@H](CC(=O)O)NC(=O)[C@@H](CC(=O)O)NC(=O)[C@@H](C)N)C(=O)N[C@H](CC(=O)O)C(=O)N[C@H](CC(C)C)C(=O)N[C@H](CC(C)C)C(=O)N[C@H](Cc1ccccc1)C(=O)N1CCC[C@@H]1C(=O)N[C@@H](C(=O)N[C@H](CC(=O)O)C(=O)N[C@@H](C(=O)N[C@H](CC(C)C)C(=O)N[C@H](CC(C)C)C(=O)N[C@H](CC(C)C)C(=O)N[C@H](CC(=O)O)C(=O)N[C@H](CC(C)C)C(=O)N[C@H](CC(C)C)C(=O)N[C@H](Cc1c[nH]c2ccccc12)C(=O)N[C@H](CSC1CC(=O)N(CCNC(=O)CN2CCN(CC(=O)O)CCN(CC(=O)O)CC2)C1=O)C(=O)NCC(=O)O)[C@H](C)O)[C@H](C)O (some centres unmarked) [^67Ga-NO2A-C^27Var3, metal not drawn]				23 ± 5	20.5 ± 1
